Experimental findings from patent US20110294748A1 (Janssen / Centocor, published 2011) are described below.

The target of test [1] is T1, soluble IGF1R (sIGF1R), extracellular domain of human insulin-like growth factor 1 receptor, carboxy-terminal … (human, UniProt P08069 31-932).
T1 construct: Bought from R&D Systems; GenBank NP-000866 is printed for the whole receptor; also called IFG1R
The test can be described thus: ELISA, culture supernatant on 2 µg/ml coated sIGF1R, Attophos detection. As for the experimental part:
The binding of purified peptide-AP fusion proteins to sIGF1R was assessed using ELISA against immobilized sIGF1R. Briefly, bacteria transformed with each peptide-AP fusion expression vector were grown overnight and the following day the cultures were clarified by centrifugation at 4,500 rpm, 4° C. The supernatants were collected and 75 μl of each supernatant was assayed for binding to 2 μg/ml sIGF1R immobilized on ELISA plates. The bound peptides were detected using the Attophos Substrate (Roche, Indianapolis, Ind.) following the manufacturer's recommendation and read using a Molecular Devices M5 plate reader.

Test [2] addresses T1, soluble IGF1R (sIGF1R), extracellular …. The test can be described thus: ELISA, serially diluted PG-peptide fusion on coated sIGF1R. The method, then:
Relative binding affinities of the PG-peptide fusions for sIGF1R were measured using ELISA. The Kds were determined using GraphPad Prism 4 software with a one site binding equation. 100 μl of 2 μg/ml sIGF1R(R&D Systems, Minneapolis, Minn.) in Dulbecco's Phosphate Buffer Saline (DPBS (−/−)) was coated onto a 96 well Black Maxisorp plates (Nunc, Rochester, N.Y.) overnight at 4° C. The plates were washed with TBST and the wells blocked with 200 μl/well Starting Block T20 (TBS) (Pierce, Rockford, Ill.) for 1 hr, room temperature with 300 rpm shaking. 75 μl/well of purified, serially diluted PG-peptide fusions, starting concentration 40 μM, was added into the wells and incubated for 1 h, room temperature with 300 rpm mixing; the volume was brought up to 100 μl with Starting Block T20. The plates were washed 3× with TBST and then probed with 100 μl/well Peroxidase labeled-Rabbit antibody (1:5000) (Rockland, Gilbertsville, Pa.), washed, and the signal was detected using 100 μl/well POD substrate (Roche, Indianapolis, Ind.). Chemiluminescence was detected using a Molecular Devices M5 plate reader.
The fusion protein with peptide clone 17 was unique in its binding profile in that the binding curve was bellshaped. […]

B1: peptide-Alkaline phosphatase-His6 fusion protein of clone 17 (other)
chain: DDIDEFLHQLHNLVNNVHTPEMPVLENRAAQGDITTPGGARRLTGDQTAALRDSLSDKPAKNIILLIGDGMGDSEITAARNYAEGAGGFFKGIDALPLTGQYTHYALNKKTGKPDYVTDSAASATAWSTGVKTYNGALGVDIHEKDHPTILEMAKAAGLATGNVSTAELQGATPAALVAHVTSRKCYGPSATSEKCPGNALEKGGKGSITEQLLNARADVTLGGGAKTFAETATAGEWQGKTLREQAQTRGYQLVSDAASLNSVTEANQQKPLLGLFADGNMPVRWLGPKATYHGNIDKPAVTCTPNPQRNDSVPTLAQMTDKAIELLSKNEKGFFLQVEGASIDKQNHAANPCGQIGETVDLDEAVQRALEFAKKEGNTLVIVTADHAHASQIVAPDTKAPGLTQALNTKDGAVMVMSYGNSEEDSQEHTGSQLRIAAYGPHAANVVGLTDQTDLFYTMKAALGLKVPGGSGGGSGGGSGGGSGTPEMPVLENRAAQGDITTPGGARRLTGDQTAALRDSLSDKPAKNIILLIGDGMGDSEITAARNYAEGAGGFFKGIDALPLTGQYTHYALNKKTGKPDYVTDSAASATAWSTGVKTYNGALGVDIHEKDHPTILEMAKAAGLATGNVSTAELQGATPAALVAHVTSRKCYGPSATSEKCPGNALEKGGKGSITEQLLNARADVTLGGGAKTFAETATAGEWQGKTLREQAQTRGYQLVSDAASLNSVTEANQQKPLLGLFADGNMPVRWLGPKATYHGNIDKPAVTCTPNPQRNDSVPTLAQMTDKAIELLSKNEKGFFLQVEGASIDKQNHAANPCGQIGETVDLDEAVQRALEFAKKEGNTLVIVTADHAHASQIVAPDTKAPGLTQALNTKDGAVMVMSYGNSEEDSQEHTGSQLRIAAYGPHAANVVGLTDQTDLFYTMKAALGLKVPGNSHHHHHH
notes: Tested as bacterial culture supernatant; also called peptide-AP fusion clone 17
With B1, the binding result in test [1] is recorded as “binds”.

B2: PG-peptide fusion of clone 17 (protein G IgG domain with peptide SEQ ID NO: 13 at its C-terminus) (other)
chain: YKLILNGKTLKGETTTEAVDAATAEKVFKQYANDNGVDGEWTYDDATKTFTVTEDDIDEFLHQLHNLVNNVH
notes: also called PG-peptide fusion clone 17; fusion protein with peptide clone 17
For B2, in test [2], the binding result was “binds”.

B3: peptide-Alkaline phosphatase-His6 fusion protein of clone 16 (other)
chain: AGCPSPMPPVDPGFYSAIVQLCRETPEMPVLENRAAQGDITTPGGARRLTGDQTAALRDSLSDKPAKNIILLIGDGMGDSEITAARNYAEGAGGFFKGIDALPLTGQYTHYALNKKTGKPDYVTDSAASATAWSTGVKTYNGALGVDIHEKDHPTILEMAKAAGLATGNVSTAELQGATPAALVAHVTSRKCYGPSATSEKCPGNALEKGGKGSITEQLLNARADVTLGGGAKTFAETATAGEWQGKTLREQAQTRGYQLVSDAASLNSVTEANQQKPLLGLFADGNMPVRWLGPKATYHGNIDKPAVTCTPNPQRNDSVPTLAQMTDKAIELLSKNEKGFFLQVEGASIDKQNHAANPCGQIGETVDLDEAVQRALEFAKKEGNTLVIVTADHAHASQIVAPDTKAPGLTQALNTKDGAVMVMSYGNSEEDSQEHTGSQLRIAAYGPHAANVVGLTDQTDLFYTMKAALGLKVPGGSGGGSGGGSGGGSGTPEMPVLENRAAQGDITTPGGARRLTGDQTAALRDSLSDKPAKNIILLIGDGMGDSEITAARNYAEGAGGFFKGIDALPLTGQYTHYALNKKTGKPDYVTDSAASATAWSTGVKTYNGALGVDIHEKDHPTILEMAKAAGLATGNVSTAELQGATPAALVAHVTSRKCYGPSATSEKCPGNALEKGGKGSITEQLLNARADVTLGGGAKTFAETATAGEWQGKTLREQAQTRGYQLVSDAASLNSVTEANQQKPLLGLFADGNMPVRWLGPKATYHGNIDKPAVTCTPNPQRNDSVPTLAQMTDKAIELLSKNEKGFFLQVEGASIDKQNHAANPCGQIGETVDLDEAVQRALEFAKKEGNTLVIVTADHAHASQIVAPDTKAPGLTQALNTKDGAVMVMSYGNSEEDSQEHTGSQLRIAAYGPHAANVVGLTDQTDLFYTMKAALGLKVPGNSHHHHHH
notes: Tested as bacterial culture supernatant; also called peptide-AP fusion clone 16
Consider B3, for which the binding result in test [1] was “binds”.
